PMC4691890, “Atomic structure of the apoptosome: mechanism of cytochrome c- and dATP-mediated activation of Apaf-1” (Genes & Development, 2015)
One block for each binder: values may come before it.

Columns and labels:
[1] = biological target: T1, full-length human Apaf-1 (residues 1–1248) (human, UniProt O14727 1-1248); test: ITC; Apaf-1 4 μM, CytC 60 μM; 100 mM KCl, 20 mM HEPES pH 7.5; 22°C; VP-ITC; details: both partners purified
T1 construct: Seven copies stand in the apoptosome that forms with CytC and dATP; source: Hi-5 insect cells (baculovirus), purified (Ni-NTA, gel filtration Superose 6)
T1 sequence (looked up): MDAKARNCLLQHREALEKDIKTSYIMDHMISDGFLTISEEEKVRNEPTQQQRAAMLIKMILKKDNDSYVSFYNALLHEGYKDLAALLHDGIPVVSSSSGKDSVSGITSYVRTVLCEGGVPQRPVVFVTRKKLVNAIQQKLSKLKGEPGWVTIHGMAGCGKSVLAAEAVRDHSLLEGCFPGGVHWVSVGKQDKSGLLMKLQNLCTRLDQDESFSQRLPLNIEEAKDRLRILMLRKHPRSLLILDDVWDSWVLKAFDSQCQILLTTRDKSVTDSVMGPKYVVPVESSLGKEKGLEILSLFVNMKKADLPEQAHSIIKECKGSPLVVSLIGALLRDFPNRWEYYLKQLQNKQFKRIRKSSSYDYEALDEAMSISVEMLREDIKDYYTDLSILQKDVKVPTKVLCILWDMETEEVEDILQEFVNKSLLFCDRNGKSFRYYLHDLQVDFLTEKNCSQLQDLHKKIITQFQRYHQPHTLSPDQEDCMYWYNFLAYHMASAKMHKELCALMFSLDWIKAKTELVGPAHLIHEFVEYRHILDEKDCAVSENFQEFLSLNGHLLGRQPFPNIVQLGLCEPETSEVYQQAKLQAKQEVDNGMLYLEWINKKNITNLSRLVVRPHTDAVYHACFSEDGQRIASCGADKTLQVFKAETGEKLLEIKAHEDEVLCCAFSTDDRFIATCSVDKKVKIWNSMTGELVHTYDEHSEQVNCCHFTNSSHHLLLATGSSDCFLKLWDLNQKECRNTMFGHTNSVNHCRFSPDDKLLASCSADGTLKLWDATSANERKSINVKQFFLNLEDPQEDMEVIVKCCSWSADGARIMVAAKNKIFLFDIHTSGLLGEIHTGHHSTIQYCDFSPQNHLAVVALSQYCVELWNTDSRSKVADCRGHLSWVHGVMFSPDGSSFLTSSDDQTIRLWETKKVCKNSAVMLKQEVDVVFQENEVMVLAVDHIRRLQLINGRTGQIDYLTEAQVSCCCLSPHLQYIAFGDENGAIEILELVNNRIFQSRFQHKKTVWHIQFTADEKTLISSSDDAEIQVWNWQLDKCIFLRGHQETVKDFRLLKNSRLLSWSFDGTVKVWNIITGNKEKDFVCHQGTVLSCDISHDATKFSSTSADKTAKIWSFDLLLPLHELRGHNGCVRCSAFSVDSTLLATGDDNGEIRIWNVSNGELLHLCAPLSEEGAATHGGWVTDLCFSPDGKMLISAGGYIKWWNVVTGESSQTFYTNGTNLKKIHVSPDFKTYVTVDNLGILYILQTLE

[2] = biological target: T1, full-length human Apaf-1 (residues …); test: SEC; Apaf-1 incubated with CytC at a molar ratio of 1:2, Superdex-200 increase 5/150; 100 mM KCl, 20 mM HEPES pH 7.5, 5 mM DTT; fractions on SDS-PAGE; no dATP named; details: both partners purified

Ka [1]: ~2.04e+06 M⁻¹
Kd [1]: ~490 nM
B1: untagged, full-length horse CytC (wild type, recombinant) (natural protein)
chain: not shown
notes: cytochrome c, horse (Equus caballus), untagged, full length; Purification as in Yu et al. 2001; also called cytochrome c; wild-type CytC; source: E. coli BL21 (DE3), coexpressed with the yeast heme lyase CYC3, purified

binding result [2]: binds
B2: horse CytC K87W (natural protein)
chain: not shown
notes: cytochrome c, horse, untagged, full length, mutant K87W; source: E. coli BL21 (DE3), coexpressed with the yeast heme lyase CYC3, purified
